Measurements reported in the MegaScale stability set (Tsuboyama et al. 2023).

B1: 6NMW (parent)
chain: QGDIVVALYPYDGIHPDDLSFKKGEKMKVLEEHGEWWKAKSLLTKKEGFIPSNYVAKLN

Variants of: B1
Test: folding stability dG (cDNA display proteolysis); higher = more stable
Conditions: PBS, room temperature

Folding stability dG [kcal/mol] of substitutions, site by site:
W36: R 4.45, P 1.14, T 2.87, Q 2.51, N 2.13, H 2.3, Y 3.49, A 1.68
G34: I 1.4, P 1.5, M 1.59, W 1.24, H 1.67, T 1.48, D 1.96, E 1.86, F 1.15, S 2, K 1.84, N 2.22, Q 1.74, L 1.52, R 1.65, A 2.02, Y 1.45, V 1.41, C 2.75
H33: M 3.29, I 3.23, A 3.01, R 3.41, T 3.12, G 3.24, L 3.41, K 3.38, N 3.62, Q 3.06, W 3.34, D 2.75, F 3.74, Y 3.6, P 1.43, V 3.16, C 4.43
K26: P 2.39, V 4.19, Y 4.84, M 4.51, T 3.12, C 4.34, S 2.3, G 1.11, D 0.255, H 4.3, Q 3.56, N 2.15, F 4.75, A 2.78, E 2.52, W 4.72, I 4.68
K23: P 2.02, E 2.88, S 2.34, C 3.59, N 1.18, H 1.85, V 3.39, L 2.79, Y 2.51, D 1.3, W 2.06, A 3.39, T 2.75, R 3.33, F 2.42, G 1.64, M 2.89, I 2.95, Q 3.22
S20: Q 2.27, L 1.15, H 2.03, E 1.75, W 1.65, P 2.81, Y 1.22, T 3.13, I 2.09, N 2.01, G 2.01, M 1.88, A 2.64, C 2.77, K 2.48, F 1.18, R 2.23, V 2.33, D 1.82
K22: Q 3.49, V 3.82, S 3.08, P 0.747, T 3.15, W 1.45, M 3.46, G 2.74, R 3.65, H 2.66, Y 2.29, F 2.5, L 3.21, N 2.67, C 3.28, I 3.84, D 2.71, A 3.17, E 3.06
K40: I 3.96, G 1.1, F 3.63, C 3.71, E 2.86, A 3
K38: F 4.92, M 3.87, S 1.83, V 3.34, E 1.49, A 1.72, T 2.18, C 3.63, G 0.033, P 0.337, I 3.44, N 1.45, R 4.06, H 2.92, Q 2.39
A39: G 1.44, C 4.07, S 0.729, Y -0.228, W -0.54, F -0.401, I 1.95, M 1.64, V 4.31, T 1.32, L 1.97
M27: C 0.54, W -0.174, Y -0.162, Q -0.878, I 1.74, H -0.396, V 0.125, F 3.72
L19: S -0.898, M 2.12, T 0.168, W 0.23, Y 0.613, V 0.435, P -0.243, N -0.23, R -0.083
